Results published in article PMC5765006 (2018).

Target: soluble extracellular domain of human TM (Homo sapiens (Human), UniProt P07204)
Assay: competition pull-down (native Ang1 inhibits thrombin/TM co-precipitation on Ni-NTA, western blot); direct pull-down only with BowAng1; indirect readout: displacement of thrombin (5 nM) from soluble TM

Sequence of soluble extracellular domain of human TM (P07204 19-515): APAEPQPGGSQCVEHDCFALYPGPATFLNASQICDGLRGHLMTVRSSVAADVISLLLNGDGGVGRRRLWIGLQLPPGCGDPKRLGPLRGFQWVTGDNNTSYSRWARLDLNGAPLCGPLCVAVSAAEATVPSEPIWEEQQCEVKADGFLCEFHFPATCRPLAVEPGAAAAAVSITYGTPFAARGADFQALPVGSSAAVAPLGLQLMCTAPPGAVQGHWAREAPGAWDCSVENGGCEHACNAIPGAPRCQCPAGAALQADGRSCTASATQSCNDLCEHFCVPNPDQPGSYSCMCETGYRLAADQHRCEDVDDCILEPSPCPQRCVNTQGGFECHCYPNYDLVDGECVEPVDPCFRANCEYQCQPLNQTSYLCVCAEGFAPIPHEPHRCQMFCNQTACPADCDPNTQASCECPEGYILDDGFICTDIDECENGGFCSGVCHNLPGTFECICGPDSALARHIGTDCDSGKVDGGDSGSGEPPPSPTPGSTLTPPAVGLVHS

binding result: binds
B1: native human Ang1 (protein)
chain: HIGCSNQRRSPENSGRRYNRIQHGQCAYTFILPEHDGNCRESTTDQYNTNALQRDAPHVEPDFSSQKLQHLEHVMENYTQWLQKLENYIVENMKSEMAQIQQNAVQNHTATMLEIGTSLLSQTAEQTRKLTDVETQVLNQTSRLEIQLLENSLSTYKLEKQLLQQTNEILKIHEKNSLLEHKILEMEGKHKEELDTLKEEKENLQGLVTRQTYIIQELEKQLNRATTNNSVLQKQQLELMDTVHNLVNLCTKEGVLLKGGKREEEKPFRDCADVYQAGFNKSGIYTIYINNMPEPKKVFCNMDVNGGGWTVIQHREDGSLDFQRGWKEYKMGFGNPSGEYWLGNEFIFAITSQRQYMLRIELMDWEGNRAYSQYDRFHIGNEKQNYRLYLKGHTGTAGKQSSLILHGADFSTKDADNDNCMCKCALMLTGGWWFDACGPSNLNGMFYTAGQNHGKLNGIKWHYFKGPSYSLRSTTMMIRPLDF
